Measured values: patent US20100233191A1

Target: MPP1 (proaerolysin with the furin site replaced by the PSA substrate HSSKLQ) (Aeromonas hydrophila) (UniProt P09167)
Experiment: cell-based or functional assay

How did the LD50 (cell killing, Trypan Blue exclusion, PSA-producing LNCaP cells, 24 h) turn out when “Prostate-specific antigen (PSA), also referred as hK3 (from UniProt P07288 25-261) (enzyme)” was run?
Its LD50 (cell killing, Trypan Blue exclusion, PSA-producing LNCaP cells, 24 h) is 100 pM.

And the fold difference in toxicity, PSA-producing versus non-PSA producing cells?
Its fold difference in toxicity, PSA-producing versus non-PSA producing cells is 500 fold.
